T1: FcγRIIb extracellular domain with C-terminal His tag (human, UniProt P31994 43-217)
T1 construct: extracellular domain; Soluble receptor expressed in FreeStyle293 cells and used as analyte in Biacore; also called FcgRIIb; 2b; not shown: His tag at the C terminus
T1 sequence (looked up): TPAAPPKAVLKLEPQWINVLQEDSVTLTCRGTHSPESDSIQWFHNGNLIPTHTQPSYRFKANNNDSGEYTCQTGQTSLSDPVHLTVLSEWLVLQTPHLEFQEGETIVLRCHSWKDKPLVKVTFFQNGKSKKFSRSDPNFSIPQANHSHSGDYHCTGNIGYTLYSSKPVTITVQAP

B1: heterodimerized antibody GpH7-A5/GpH7-B3 variant S298_01G/GpL16-k0 (antibody, human IgG1, kappa)
heavy 1: not shown
heavy 2: not shown
light: DIVMTQSPLSLPVTPGEPASISCQASESLVHSNRNTYLHWYLQKPGQSPQLLIYKVSNRFSGVPDRFSGSGSGTDFTLKISRVEAEDVGVYYCSQNTHVPPTFGQGTKVEIERTVAAPSVFIFPPSDEQLKSGTASVVCLLNNFYPREAKVQWKVDNALQSGNSQESVTEQDSKDSTYSLSSTLTLSKADYEKHKVYACEVTHQGLSSPVTKSFNRGEC
notes: Substitution in only one H chain (GpH7-B3 side); also called He Ab
B2: heterodimerized antibody GpH7-A5/GpH7-B3 variant S298_05P/GpL16-k0 (antibody, human IgG1, kappa)
heavy 1: not shown
heavy 2: not shown
light: B1 light
notes: as for B1
B3: heterodimerized antibody GpH7-A5/GpH7-B3 variant S298_04F/GpL16-k0 (antibody, human IgG1, kappa)
heavy 1: not shown
heavy 2: not shown
light: B1 light
notes: as for B1
B4: heterodimerized antibody GpH7-A5/GpH7-B3 variant S298_07I/GpL16-k0 (antibody, human IgG1, kappa)
heavy 1: not shown
heavy 2: not shown
light: B1 light
notes: as for B1
B5: heterodimerized antibody GpH7-A5/GpH7-B3 variant Y296_11K/GpL16-k0 (antibody, human IgG1, kappa)
heavy 1: not shown
heavy 2: not shown
light: B1 light
notes: as for B1
B6: heterodimerized antibody GpH7-A5/GpH7-B3 variant Y296_08L/GpL16-k0 (antibody, human IgG1, kappa)
heavy 1: not shown
heavy 2: not shown
light: B1 light
notes: as for B1
B7: heterodimerized antibody GpH7-A5/GpH7-B3 variant Y296_13S/GpL16-k0 (antibody, human IgG1, kappa)
heavy 1: not shown
heavy 2: not shown
light: B1 light
notes: as for B1
B8: heterodimerized antibody GpH7-A5/GpH7-B3 variant Y296_19Q/GpL16-k0 (antibody, human IgG1, kappa)
heavy 1: not shown
heavy 2: not shown
light: B1 light
notes: as for B1
B9: heterodimerized antibody GpH7-A5/GpH7-B3 variant Y296_12R/GpL16-k0 (antibody, human IgG1, kappa)
heavy 1: not shown
heavy 2: not shown
light: B1 light
notes: as for B1
B10: heterodimerized antibody GpH7-A5/GpH7-B3 variant S298_03V/GpL16-k0 (antibody, human IgG1, kappa)
heavy 1: not shown
heavy 2: not shown
light: B1 light
notes: as for B1
B11: heterodimerized antibody GpH7-A5/GpH7-B3 variant Y296_03V/GpL16-k0 (antibody, human IgG1, kappa)
heavy 1: not shown
heavy 2: not shown
light: B1 light
notes: as for B1
B12: heterodimerized antibody GpH7-A5/GpH7-B3 variant Y296_07I/GpL16-k0 (antibody, human IgG1, kappa)
heavy 1: not shown
heavy 2: not shown
light: B1 light
notes: as for B1
B13: heterodimerized antibody GpH7-A5/GpH7-B3 variant Y296_05P/GpL16-k0 (antibody, human IgG1, kappa)
heavy 1: not shown
heavy 2: not shown
light: B1 light
notes: as for B1
B14: heterodimerized antibody GpH7-A5/GpH7-B3 variant S298_02A/GpL16-k0 (antibody, human IgG1, kappa)
heavy 1: not shown
heavy 2: not shown
light: B1 light
notes: as for B1
B15: heterodimerized antibody GpH7-A5/GpH7-B3 variant Y296_02A/GpL16-k0 (antibody, human IgG1, kappa)
heavy 1: not shown
heavy 2: not shown
light: B1 light
notes: as for B1
B16: GpH7-A5/GpH7-B3 variant Q295_13S/GpL16-k0 (antibody, human IgG1, kappa)
heavy 1: not shown
heavy 2: not shown
light: B1 light
notes: mutation in one H chain only; also called He Ab Q295_13S; Q295S
B17: GpH7-A5/GpH7-B3 variant Q295_05P/GpL16-k0 (antibody, human IgG1, kappa)
heavy 1: not shown
heavy 2: not shown
light: B1 light
notes: mutation in one H chain only; also called He Ab Q295_05P; Q295P
B18: GpH7-A5/GpH7-B3 variant P271_15Y/GpL16-k0 (antibody, human IgG1, kappa)
heavy 1: not shown
heavy 2: not shown
light: B1 light
notes: mutation in one H chain only; also called He Ab P271_15Y; P271Y
B19: GpH7-A5/GpH7-B3 variant P329_02A/GpL16-k0 (antibody, human IgG1, kappa)
heavy 1: not shown
heavy 2: not shown
light: B1 light
notes: mutation in one H chain only; also called He Ab P329_02A; P329A
B20: GpH7-A5/GpH7-B3 variant Q295_09D/GpL16-k0 (antibody, human IgG1, kappa)
heavy 1: not shown
heavy 2: not shown
light: B1 light
notes: mutation in one H chain only; also called He Ab Q295_09D; Q295D
B21: GpH7-A5/GpH7-B3 variant Q295_03V/GpL16-k0 (antibody, human IgG1, kappa)
heavy 1: not shown
heavy 2: not shown
light: B1 light
notes: mutation in one H chain only; also called He Ab Q295_03V; Q295V
B22: GpH7-A5/GpH7-B3 variant Q295_15Y/GpL16-k0 (antibody, human IgG1, kappa)
heavy 1: not shown
heavy 2: not shown
light: B1 light
notes: mutation in one H chain only; also called He Ab Q295_15Y; Q295Y
B23: GpH7-A5/GpH7-B3 variant Q295_11K/GpL16-k0 (antibody, human IgG1, kappa)
heavy 1: not shown
heavy 2: not shown
light: B1 light
notes: mutation in one H chain only; also called He Ab Q295_11K; Q295K
B24: GpH7-A5/GpH7-B3 variant Q295_16H/GpL16-k0 (antibody, human IgG1, kappa)
heavy 1: not shown
heavy 2: not shown
light: B1 light
notes: mutation in one H chain only; also called He Ab Q295_16H; Q295H

target: T2, FcγRIa extracellular domain with C-terminal His tag (human, UniProt P12314 16-292); assay: SPR Biacore; relative binding to FcγRIa divided by that to FcγRIIb
T2 construct: extracellular domain; Soluble receptor expressed in FreeStyle293 cells and used as analyte in Biacore; also called FcgRI; 1a; not shown: His tag at the C terminus
T2 sequence (P12314 16-292): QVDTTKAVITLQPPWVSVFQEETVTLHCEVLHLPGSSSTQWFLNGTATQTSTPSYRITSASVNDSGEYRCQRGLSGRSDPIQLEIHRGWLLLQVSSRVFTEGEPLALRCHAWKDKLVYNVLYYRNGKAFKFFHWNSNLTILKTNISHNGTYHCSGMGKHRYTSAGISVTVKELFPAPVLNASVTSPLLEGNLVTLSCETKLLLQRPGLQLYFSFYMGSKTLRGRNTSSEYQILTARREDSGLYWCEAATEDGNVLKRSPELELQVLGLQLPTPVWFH

Binder | Ia/IIb He_1a/2b
B1 | 1.29 ratio of He/Con_1a to He/Con_2b
B2 | 7.7 ratio of He/Con_1a to He/Con_2b
B3 | 1.67 ratio of He/Con_1a to He/Con_2b
B4 | 1.52 ratio of He/Con_1a to He/Con_2b
B5 | 1.44 ratio of He/Con_1a to He/Con_2b
B6 | 1.26 ratio of He/Con_1a to He/Con_2b
B7 | 1.22 ratio of He/Con_1a to He/Con_2b
B8 | 1.25 ratio of He/Con_1a to He/Con_2b
B9 | 1.34 ratio of He/Con_1a to He/Con_2b
B10 | 1.7 ratio of He/Con_1a to He/Con_2b
B11 | 1.31 ratio of He/Con_1a to He/Con_2b
B12 | 1.24 ratio of He/Con_1a to He/Con_2b
B13 | 2.61 ratio of He/Con_1a to He/Con_2b
B14 | 1.45 ratio of He/Con_1a to He/Con_2b
B15 | 1.26 ratio of He/Con_1a to He/Con_2b

target: T2, FcγRIa extracellular domain with …; assay: SPR Biacore, relative binding amount

Binder | He/Con_1a
B1 | 104 % of GpH7-A5/GpH7-B3/GpL16-k0 (=100)
B2 | 91.6 % of GpH7-A5/GpH7-B3/GpL16-k0 (=100)
B3 | 109 % of GpH7-A5/GpH7-B3/GpL16-k0 (=100)
B4 | 107 % of GpH7-A5/GpH7-B3/GpL16-k0 (=100)
B5 | 105 % of GpH7-A5/GpH7-B3/GpL16-k0 (=100)
B6 | 104 % of GpH7-A5/GpH7-B3/GpL16-k0 (=100)
B7 | 105 % of GpH7-A5/GpH7-B3/GpL16-k0 (=100)
B8 | 112 % of GpH7-A5/GpH7-B3/GpL16-k0 (=100)
B9 | 106 % of GpH7-A5/GpH7-B3/GpL16-k0 (=100)
B10 | 110 % of GpH7-A5/GpH7-B3/GpL16-k0 (=100)
B11 | 104 % of GpH7-A5/GpH7-B3/GpL16-k0 (=100)
B12 | 104 % of GpH7-A5/GpH7-B3/GpL16-k0 (=100)
B13 | 95.6 % of GpH7-A5/GpH7-B3/GpL16-k0 (=100)
B14 | 107 % of GpH7-A5/GpH7-B3/GpL16-k0 (=100)
B15 | 103 % of GpH7-A5/GpH7-B3/GpL16-k0 (=100)

target: T1, FcγRIIb extracellular domain with …; assay: SPR Biacore, relative binding amount

Binder | He/Con_2b
B1 | 80.1 % of GpH7-A5/GpH7-B3/GpL16-k0 (=100)
B2 | 11.9 % of GpH7-A5/GpH7-B3/GpL16-k0 (=100)
B3 | 65.4 % of GpH7-A5/GpH7-B3/GpL16-k0 (=100)
B4 | 70.6 % of GpH7-A5/GpH7-B3/GpL16-k0 (=100)
B5 | 72.8 % of GpH7-A5/GpH7-B3/GpL16-k0 (=100)
B6 | 82.3 % of GpH7-A5/GpH7-B3/GpL16-k0 (=100)
B7 | 86.3 % of GpH7-A5/GpH7-B3/GpL16-k0 (=100)
B8 | 89.3 % of GpH7-A5/GpH7-B3/GpL16-k0 (=100)
B9 | 79.5 % of GpH7-A5/GpH7-B3/GpL16-k0 (=100)
B10 | 64.5 % of GpH7-A5/GpH7-B3/GpL16-k0 (=100)
B11 | 79.3 % of GpH7-A5/GpH7-B3/GpL16-k0 (=100)
B12 | 84.3 % of GpH7-A5/GpH7-B3/GpL16-k0 (=100)
B13 | 36.6 % of GpH7-A5/GpH7-B3/GpL16-k0 (=100)
B14 | 73.4 % of GpH7-A5/GpH7-B3/GpL16-k0 (=100)
B15 | 82 % of GpH7-A5/GpH7-B3/GpL16-k0 (=100)

target: T3, FcγRIa extracellular domain with C-terminal His tag (human, UniProt P12314 16-292); assay: SPR Biacore, relative FcγRIa binding vs GpH7-A5/GpH7-B3/GpL16-k0
T3 construct: extracellular domain; also called FcgRI; CD64; not shown: His tag at the C terminus
T3 sequence (P12314 16-292): as above

Binder | He/Con_1a
B16 | 102 % of HeCon Ab (=100)
B17 | 103 % of HeCon Ab (=100)
B18 | 103 % of HeCon Ab (=100)
B19 | 102 % of HeCon Ab (=100)
B20 | 100 % of HeCon Ab (=100)
B21 | 104 % of HeCon Ab (=100)
B22 | 102 % of HeCon Ab (=100)
B23 | 101 % of HeCon Ab (=100)
B24 | 102 % of HeCon Ab (=100)

— patent publication US20180155451A1 (published 2018)
